Data on one substance can be found in patent US20220184124A1.

For this test, the target named is CD19 on Daudi cells (CD19 positive target tumor cells) (UniProt P15391). Description: cell-based or functional assay.
UniProt P15391, sequence (P15391 20-556 limits assumed): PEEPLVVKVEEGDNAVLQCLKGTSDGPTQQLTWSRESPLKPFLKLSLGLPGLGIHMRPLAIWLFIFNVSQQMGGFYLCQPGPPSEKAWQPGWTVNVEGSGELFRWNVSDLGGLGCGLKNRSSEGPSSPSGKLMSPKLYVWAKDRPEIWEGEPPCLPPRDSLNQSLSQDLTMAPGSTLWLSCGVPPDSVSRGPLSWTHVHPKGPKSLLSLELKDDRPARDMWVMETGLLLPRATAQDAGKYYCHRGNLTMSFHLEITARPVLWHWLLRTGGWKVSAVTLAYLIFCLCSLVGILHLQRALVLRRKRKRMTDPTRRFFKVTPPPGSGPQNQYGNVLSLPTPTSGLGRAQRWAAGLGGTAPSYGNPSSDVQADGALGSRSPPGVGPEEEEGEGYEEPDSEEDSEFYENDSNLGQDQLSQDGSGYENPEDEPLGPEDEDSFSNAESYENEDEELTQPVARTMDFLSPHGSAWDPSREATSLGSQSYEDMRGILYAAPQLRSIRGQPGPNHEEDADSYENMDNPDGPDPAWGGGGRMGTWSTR

In the case of “CD19(4G7) scFv/4-1BB/CD3ζ CAR (receptor)”, the % CD107a+ of CD4+ T cells, 6 hr co-culture with Daudi cells was 30.4%; the % CD107a+ of CD8+ T cells, 6 hr co-culture with Daudi cells worked out at 44.6%; the % CD107a+ of NK cells (CD5-CD56+), co-culture with Daudi cells was 32.5%; the % CD107a+ of NKT cells, 6 hr co-culture with Daudi cells was determined as 48.6%. In addition, the % CD107a+ of TCRγδ T cells, co-culture with Daudi cells stood at 23.2%; the % CD107a+ of residual TCRαβ+ cells, 6 hr co-culture with Daudi cells was found to be 64.8%; the % IFNγ+ of CD8+ T cells, co-culture with Daudi cells was 16.7%; the % IFNγ+ of NKT cells, co-culture with Daudi cells was 24.8%. This substance registered a % IFNγ+ of TCRγδ T cells, co-culture with Daudi cells of 7.46%; a % IFNγ+ of residual TCRαβ+ cells, co-culture with Daudi cells of 50.9%; a % IL2+ of CD8+ T cells, co-culture with Daudi cells of 0.69%; a % IL2+ of NKT cells, co-culture with Daudi cells of 1.07%. The substance further came in with a % IL2+ of TCRγδ T cells, co-culture with Daudi cells of 0.23%; a % IL2+ of residual TCRαβ+ cells, co-culture with Daudi cells of 13.9%; a % TNFα+ of CD8+ T cells, co-culture with Daudi cells of 21.5%; a % TNFα+ of NKT cells, co-culture with Daudi cells of 28.3%. The substance further returned a % TNFα+ of TCRγδ T cells, co-culture with Daudi cells of 12.9% and a % TNFα+ of residual TCRαβ+ cells, co-culture with Daudi cells of 50%.
